T1: Full-length STAT1 protein (unphosphorylated) (human, UniProt P42224 1-750)
T1 construct: also called U-STAT1; pEXP-nHis-STAT1
T1 sequence (looked up): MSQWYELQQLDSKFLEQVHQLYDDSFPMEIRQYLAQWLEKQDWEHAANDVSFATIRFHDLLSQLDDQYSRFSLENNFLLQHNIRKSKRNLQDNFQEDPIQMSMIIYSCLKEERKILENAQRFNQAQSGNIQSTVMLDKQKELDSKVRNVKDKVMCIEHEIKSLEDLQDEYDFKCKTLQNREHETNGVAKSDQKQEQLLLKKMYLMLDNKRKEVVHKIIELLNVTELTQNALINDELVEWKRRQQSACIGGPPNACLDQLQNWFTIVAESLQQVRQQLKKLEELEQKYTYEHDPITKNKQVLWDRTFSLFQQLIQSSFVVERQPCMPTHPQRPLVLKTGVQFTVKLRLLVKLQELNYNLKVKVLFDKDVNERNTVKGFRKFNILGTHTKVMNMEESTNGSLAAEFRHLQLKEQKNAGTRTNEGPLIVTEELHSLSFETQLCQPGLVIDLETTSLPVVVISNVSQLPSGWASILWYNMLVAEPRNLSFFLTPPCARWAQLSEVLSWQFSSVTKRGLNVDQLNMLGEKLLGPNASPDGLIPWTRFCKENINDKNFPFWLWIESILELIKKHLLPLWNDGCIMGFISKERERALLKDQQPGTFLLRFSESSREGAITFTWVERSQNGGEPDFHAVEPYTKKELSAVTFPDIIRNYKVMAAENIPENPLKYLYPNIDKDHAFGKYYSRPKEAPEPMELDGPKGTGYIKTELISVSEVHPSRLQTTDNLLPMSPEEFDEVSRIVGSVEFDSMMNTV

T2: Full-length STAT1 protein (unphosphorylated, U-STAT1) (UniProt P42224 1-750)
T2 construct: also called STAT1 FL
T2 sequence (looked up): T1 sequence (looked up)

B1: GB1-018 (natural protein)
chain: MSSKGGSSGGMWSVFIHGHDGSNKGSKTYTSGGGGMWGGGSSSGVKSGVNGGVKSGTGKI
B2: pIFNGR1 5-mer peptide (Ac-pYDKPH-NH2) (peptide)
peptide: Ac-[pY]DKPH-NH2
SMILES: CC(=O)N[C@@H](Cc1ccc(OP(=O)(O)O)cc1)C(=O)N[C@@H](CC(=O)O)C(=O)N[C@@H](CCCCN)C(=O)N1CCC[C@H]1C(=O)N[C@@H](Cc1c[nH]cn1)C(N)=O
notes: also called pIFNGR 5-mer

Where no end group is shown, it is not given here. [ ]: non-standard residue; d: D form. pY = N[C@@H](Cc1ccc(OP(=O)(O)O)cc1)C(=O)O Some results are limits rather than exact numbers.

One test concerns the target T1, Full-length STAT1 protein …. Nature of the test: fluorescence polarisation. The settings on record: both partners purified. (In general: In fluorescence polarisation assays a small probe gives low polarisation when free and higher when bound to something large.)
As for B1, it took 1260 nM to reach half-maximal inhibition (IC50). In other words, the single-digit micromolar range.
The same measure, in the same setting: in the case of MWSVFIHGHDGSNKGSK (domain or fragment) [GB1-018^T3] it was 17800 nM.
Same read-out and setting: in the case of MWSVFIHGHDGSNKGSKTYTS (domain or fragment) [GB1-018^T2] it was 930 nM.

The next test deals with T2, Full-length STAT1 protein …. Nature of the test: ITC. The settings on record: both partners purified.
Ac-MWSVFIHGHDGSNKGSKT[pY]TS-NH2 [018 phospho 21-mer peptide (Ac-MWSVFIHGHDGSNKGSKT(pY)TS-NH2)]: the “stoichiometry N” value amounted to 1.12.
In the case of B2, the “stoichiometry N” value amounted to 0.708.
MWSVFIHGHDGSNKGSK (domain or fragment) [GB1-018^T3 (018^T2 without the C-terminal 28-TYTS-31, fused to GB1)]: the “stoichiometry N” value was determined as 1.
On to MWSVFIHGHDGSNKGSKTYTS (domain or fragment) [GB1-018^T2 (minimal fragment of 018, aa 11-31, fused to GB1)], for which the “stoichiometry N” value was 1.01.
The same measure, in the same setting: the same measure for Ac-MWSVFIHGHDGSNKGSKTYTS-NH2 [018 21-mer peptide (Ac-MWSVFIHGHDGSNKGSKTYTS-NH2)]: 1.09.

A further test deals with T1, Full-length STAT1 protein …. Nature of the test: ITC. The note with it: both partners purified.
Consider MWSVFIHGHDGSNKGSKTYTS (also: phospho, position not given here) [018 phospho 21-mer peptide], for which the Kd was found to be 174 nM.
For B1, the Kd is 291 nM and the “stoichiometry N” value was found to be 1.02.
Take MWSVFIHGHDGSNKGSK (domain or fragment) [GB1-018^T3]: the equilibrium dissociation constant (Kd) was greater than 10000 nM.
In the case of MWSVFIHGHDGSNKGSKTYTS [018 21-mer peptide], the Kd was found to be 321 nM.
On the same count and under the same terms, in the case of MWSVFIHGHDGSNKGSKTYTS (domain or fragment) [GB1-018^T2] it was 235 nM.

By IC50 is commonly meant the concentration at which inhibition is half-maximal. High values mean a need for much substance, low ones inhibition by little substance. The term stoichiometry N denotes the number of molecules, sites or subunits per partner or assembly. Broadly, the Kd is the constant that tells how readily two partners part at equilibrium. Low readings indicate tighter binding, high ones weaker binding.

(Values after paper PMC8912257 (Cell Host & Microbe, 2022).)
